In the supplement of paper PMC10899765:

Columns and labels:
Settings in all cases: 20 nM; 72 h
MCF10A [1] = assay: percent viability (nuclei count relative to siNT); higher = more viable cells
Protocol: (§1)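 After 72 h, cells were fixed and stained with Hoechst and anti-fibrillarin, and nucleoli per nucleus were counted with CellProfiler. Values are plate-adjusted percent effect for the one-nucleolus and 5+ nucleoli phenotypes, normalised to siNT (0%) and to the positive controls siNOL11 or siKIF11 (100%), as the mean of biological triplicates. Percent viability is the nuclei count relative to siNT.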

MCF10A [2] = assay: one-nucleolus phenotype percent effect (relative to siNT 0% and siNOL11 100%); higher = more cells with one nucleolus (ribosome biogenesis inhibition)
Protocol: as §1

MCF10A [3] = assay: 5+ nucleoli phenotype percent effect (relative to siNT 0% and siKIF11 100%); higher = more cells with five or more nucleoli
Protocol: as §1

Sequence | percent viability (MCF10A [1]) [%] | one-nucleolus phenotype percent effect (MCF10A [2]) [%] | 5+ nucleoli phenotype percent effect (MCF10A [3]) [%]
AUGGCCAAAACUGCAGUUAUUUU [hsa-miR-548s] | 37.4 | 8.89 | 14.5
CUUAUAUCAGAGGCUGUGGG [hsa-miR-6083] | 40.8 | 28.6 | -34.4
CCCCGCCACCGCCUUGG [hsa-miR-4258] | 54.5 | -17.4 | 29.4
CUCCCACUUCCAGAUCUUUCU [hsa-miR-3156-3p] | 34.1 | -4.85 | 12
CAUCAUCGUCUCAAAUGAGUCU [hsa-miR-136-3p] | 37.4 | -9.83 | 22.1
UCUGACAUCAGUGAUUCUCCUG [hsa-miR-6719-3p] | 115 | -5.44 | 20.2
CAAGAACCUCAGUUGCUUUUGU [hsa-miR-548b-3p] | 83.5 | -16.6 | 39
UAGCAAGAGAACCAUUACCAUU [hsa-miR-451b] | 71.6 | -10.8 | 3.42
GUCCAGUUUUCCCAGGAAUCCCU [hsa-miR-145-5p] | 70.4 | -4.84 | -1.55
AGCUGUCUGAAAAUGUCUU [hsa-miR-626] | 50.2 | 2.9 | 25.1
UGAGUCAGCAACAUAUCCCAUG [hsa-miR-5702] | 86.4 | -25.5 | 52.5
UCGCGCCCCGGCUCCCGUUC [hsa-miR-1292-3p] | 64.3 | -6.7 | 9.03
CCAGGAGAUCCAGAGAGAAU [hsa-miR-4768-3p] | 32.6 | 0.373 | 1.69
UUGUGUGAGUACAGAGAGCAUC [hsa-miR-6818-5p] | 17.1 | 66.1 | -31.6
GCCCUCCGCCCGUGCACCCCG [hsa-miR-1470] | 113 | -19.6 | 45.2
AUGGCCAGAGCUCACACAGAGG [hsa-miR-4435] | 68 | -11.4 | 40.9
UGGGGUAAGGAUAGGAGGGUCA [hsa-miR-6881-5p] | 24.8 | 4.74 | -3.46
UGAGGGGCCUCAGACCGAGCUUUU [hsa-miR-3184-5p] | 31.2 | 5.35 | 38.7
CAGGCCAUAUUGUGCUGCCUCA [hsa-miR-15a-3p] | 29.6 | 23 | -27.1
CUGGUUUCACAUGGUGGCUUAG [hsa-miR-29b-2-5p] | 43.4 | -3.17 | 7.64
CGGGUAGAGAGGGCAGUGGGAGG [hsa-miR-197-5p] | 44.8 | -25.5 | 48.2
CCUGCAGAGAGGAAGCCCUUC [hsa-miR-3158-5p] | 38.5 | 26.4 | -45.3
GGCGCGCCCAGCUCCCGGGCU [hsa-miR-4783-5p] | 90.3 | -16.4 | 28
UUACACAGCUGGACAGAGGCA [hsa-miR-4672] | 17.6 | 38.5 | -34
ACGGAUGUUUGAGCAUGUGCUA [hsa-miR-105-3p] | 117 | -17 | 12.2
